# Laboratory results taken from PMC7392005, “Fructose-1, 6-bisphosphatase 1 interacts with NF-κB p65 to regulate breast tumorigenesis via PIM2 induced phosphorylation” (Theranostics, 2020).
# T1: GST-tagged FBP1 (UniProt P09467 1-338)
# T1 construct: fructose-1,6-bisphosphatase 1 (FBP1); also called GST-FBP1; source: E. coli BL21 (DE3), purified
# T1 sequence (looked up): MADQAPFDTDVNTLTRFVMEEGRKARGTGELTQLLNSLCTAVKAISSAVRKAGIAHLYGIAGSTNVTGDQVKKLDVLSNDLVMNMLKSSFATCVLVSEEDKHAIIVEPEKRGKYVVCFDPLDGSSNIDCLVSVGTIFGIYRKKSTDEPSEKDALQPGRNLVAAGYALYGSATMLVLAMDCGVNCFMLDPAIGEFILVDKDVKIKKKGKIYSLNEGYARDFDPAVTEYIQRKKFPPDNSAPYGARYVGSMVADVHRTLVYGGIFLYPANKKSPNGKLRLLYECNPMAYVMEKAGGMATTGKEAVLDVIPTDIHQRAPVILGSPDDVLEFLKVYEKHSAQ
# Tests used:
# GST-tagged FBP1 = molecular target: T1, GST-tagged FBP1; assay: pull-down; GST pull-down: purified GST-tagged protein (or GST) mixed with His-tagged protein, both expressed in E. coli BL21 (DE3); conditions: both partners purified
# GST-tagged p65 = molecular target: T2, GST-tagged p65 (UniProt Q04206 1-551); assay: as above; conditions: both partners purified
# T2 construct: NF-κB p65 (RelA); also called GST-p65; source: E. coli BL21 (DE3), purified
# T2 sequence (Q04206 whole entry): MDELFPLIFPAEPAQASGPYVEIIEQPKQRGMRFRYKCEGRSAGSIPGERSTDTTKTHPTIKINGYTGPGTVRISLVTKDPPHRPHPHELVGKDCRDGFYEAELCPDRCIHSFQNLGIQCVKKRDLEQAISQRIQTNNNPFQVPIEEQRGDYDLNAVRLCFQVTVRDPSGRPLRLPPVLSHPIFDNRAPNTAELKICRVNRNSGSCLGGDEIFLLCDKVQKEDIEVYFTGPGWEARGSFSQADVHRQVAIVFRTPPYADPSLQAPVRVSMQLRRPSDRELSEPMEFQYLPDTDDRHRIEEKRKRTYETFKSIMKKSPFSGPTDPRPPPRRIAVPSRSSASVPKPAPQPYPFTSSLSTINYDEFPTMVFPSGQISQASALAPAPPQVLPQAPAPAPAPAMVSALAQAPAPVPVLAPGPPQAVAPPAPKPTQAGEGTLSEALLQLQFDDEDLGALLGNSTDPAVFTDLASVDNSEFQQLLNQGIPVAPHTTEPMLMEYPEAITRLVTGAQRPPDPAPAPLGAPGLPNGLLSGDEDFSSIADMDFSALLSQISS
binding result (GST-tagged FBP1),binding result (GST-tagged p65),Binder
binds,,"His-tagged PIM2 (enzyme, serine/threonine kinase PIM2; also called His-PIM2; source: E. coli BL21 (DE3), purified) not shown"
,binds,"His-tagged FBP1 (enzyme, UniProt P09467 1-338, looked up, fructose-1,6-bisphosphatase 1 (FBP1); also called His-FBP1; source: E. coli BL21 (DE3)) MADQAPFDTDVNTLTRFVMEEGRKARGTGELTQLLNSLCTAVKAISSAVRKAGIAHLYGIAGSTNVTGDQVKKLDVLSNDLVMNMLKSSFATCVLVSEEDKHAIIVEPEKRGKYVVCFDPLDGSSNIDCLVSVGTIFGIYRKKSTDEPSEKDALQPGRNLVAAGYALYGSATMLVLAMDCGVNCFMLDPAIGEFILVDKDVKIKKKGKIYSLNEGYARDFDPAVTEYIQRKKFPPDNSAPYGARYVGSMVADVHRTLVYGGIFLYPANKKSPNGKLRLLYECNPMAYVMEKAGGMATTGKEAVLDVIPTDIHQRAPVILGSPDDVLEFLKVYEKHSAQ"
